Source: patent US20020019349A1

Target: relaxin binding sites on primary human fetal cardiac cells (receptor not named) (human)
Test: competitive binding on cultured cells: 100 µM 32P-relaxin, 2 hr at room temperature, with or without 1000-fold excess of unlabeled relaxin; (total - nonspecific)/total x 100

percent specific binding: 40 to 55%
Substance: 32P-labeled relaxin (from UniProt P04090 162-185; P04090 25-53) (ligand)
